In US20180066242A1:

Molecular target: dCas9(C)-FKBP-2×NLS-VP64 (split-4, N863A) (Streptococcus pyogenes)
Test: cell-based or functional assay

## dCas9(N)-FRB-2×NES (split-4, D10A) (from UniProt Q99ZW2 1-535; P42345 2021-2113; Q05397 518-525)
  ASCL1 mRNA by qPCR, +rapamycin/-rapamycin ratio: 77
  IL1RN mRNA by qPCR, +rapamycin/-rapamycin ratio: 649
  MYOD1 mRNA by qPCR, +rapamycin/-rapamycin ratio: 29
